Tests used:
[1] = target: human UBA6 (full-length, amino acid residues 1-1052) (human) (UniProt A0AVT1)
[2] = target: oxyester-linked UBA6-Ub conjugate (UBA6 C625S charged with ubiquitin) (human) (UniProt A0AVT1); assay: BLI; His-tagged E1 ligands on Anti-Penta-His (His1K) biosensors; analyte BIRC6^UBC or BIRC6^(UBCΔinsertion loop) at 40-3240 nM; 50 mM HEPES, pH 7.4, 150 mM NaCl, 0.05% Tween-20, 10 mM imidazole; 25 °C; steady-state 1:1 fit
human UBA1 (human) = human UBA1 (human) (UniProt P22314); assay: as above

Chain of human UBA6 (full-length, amino acid residues 1-1052) (human) (A0AVT1 whole entry, the tested form may be a part): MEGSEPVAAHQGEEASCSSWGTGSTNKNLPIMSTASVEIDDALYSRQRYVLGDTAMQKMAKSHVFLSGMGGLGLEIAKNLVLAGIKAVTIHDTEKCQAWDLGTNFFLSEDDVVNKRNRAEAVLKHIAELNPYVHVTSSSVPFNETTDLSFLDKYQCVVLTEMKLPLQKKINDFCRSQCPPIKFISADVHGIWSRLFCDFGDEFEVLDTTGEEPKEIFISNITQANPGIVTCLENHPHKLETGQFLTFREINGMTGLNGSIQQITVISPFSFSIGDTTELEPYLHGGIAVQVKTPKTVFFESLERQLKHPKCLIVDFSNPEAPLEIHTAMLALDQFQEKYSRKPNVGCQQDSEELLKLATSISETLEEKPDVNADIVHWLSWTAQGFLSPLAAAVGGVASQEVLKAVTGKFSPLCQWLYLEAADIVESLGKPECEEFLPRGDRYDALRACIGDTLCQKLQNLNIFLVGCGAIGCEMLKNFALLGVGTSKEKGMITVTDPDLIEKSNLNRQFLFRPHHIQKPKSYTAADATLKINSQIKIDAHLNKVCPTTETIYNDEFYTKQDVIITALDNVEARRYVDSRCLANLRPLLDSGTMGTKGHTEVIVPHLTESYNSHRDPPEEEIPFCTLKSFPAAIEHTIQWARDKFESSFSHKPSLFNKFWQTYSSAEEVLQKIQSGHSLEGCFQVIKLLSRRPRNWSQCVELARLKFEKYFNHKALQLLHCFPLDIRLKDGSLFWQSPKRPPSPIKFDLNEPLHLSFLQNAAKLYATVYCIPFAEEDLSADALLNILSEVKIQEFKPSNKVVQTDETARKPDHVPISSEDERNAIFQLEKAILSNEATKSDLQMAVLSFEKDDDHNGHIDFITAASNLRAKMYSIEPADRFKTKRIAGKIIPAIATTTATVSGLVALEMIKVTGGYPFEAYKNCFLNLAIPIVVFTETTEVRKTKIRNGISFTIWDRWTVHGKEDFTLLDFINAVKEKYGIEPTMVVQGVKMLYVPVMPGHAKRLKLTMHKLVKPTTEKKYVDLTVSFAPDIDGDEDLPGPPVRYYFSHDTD
Chain of UBC domain of BIRC6 (residues 4520-4857) (Q9NR09 4520-4857): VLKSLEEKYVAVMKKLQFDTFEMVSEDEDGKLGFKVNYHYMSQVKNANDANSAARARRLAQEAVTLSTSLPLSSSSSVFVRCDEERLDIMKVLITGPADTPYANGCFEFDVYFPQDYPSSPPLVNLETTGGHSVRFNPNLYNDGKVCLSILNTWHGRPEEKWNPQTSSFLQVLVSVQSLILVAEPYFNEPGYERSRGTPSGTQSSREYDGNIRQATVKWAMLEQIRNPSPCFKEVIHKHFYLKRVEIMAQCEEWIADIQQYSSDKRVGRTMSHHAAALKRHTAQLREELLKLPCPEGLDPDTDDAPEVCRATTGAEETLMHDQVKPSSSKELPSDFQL

BIRC6^UBC C-terminal extension mutant (R4745A-R4799A-T4789A) (from UniProt Q9NR09 4520-4857) (domain or fragment)
reduction of Ub charging of BIRC6^UBC by UBA6 relative to WT (E1–E2 transthioesterification assay, 2 min) [1]: 50%

BIRC6^UBC β4 loop mutant (Q4634A) (from UniProt Q9NR09 4520-4857) (domain or fragment)
reduction of Ub charging of BIRC6^UBC by UBA6 relative to WT (E1–E2 transthioesterification assay, 2 min) [1]: 50%

BIRC6^UBC N-terminal extension mutant (A4569R) (from UniProt Q9NR09 4520-4857)
reduction of Ub charging of BIRC6^UBC by UBA6 relative to WT (E1–E2 transthioesterification assay, 2 min) [1]: 25%

UBC domain of BIRC6 (residues 4520-4857) (from UniProt Q9NR09 4520-4857) (domain or fragment)
Kd [2]: 2.41 µM

BIRC6^UBC with the insertion loop deleted (from UniProt Q9NR09 4520-4857) (domain or fragment)
Kd (human UBA1 (human)): 1.47 µM

BIRC6^UBC N-helix mutant (R4576A-Q4580A-V4583G) (from UniProt Q9NR09 4520-4857) (domain or fragment)
reduction of Ub charging of BIRC6^UBC by UBA6 relative to WT (E1–E2 transthioesterification assay, 2 min) [1]: 25%

BIRC6^UBC Y4711G (from UniProt Q9NR09 4520-4857) (domain or fragment)
reduction of BIRC6^UBC~Ub formation by UBA6 relative to WT (E1–E2 transthioesterification assay, 2 min) [1]: 60%

Source: PMC13623948
